According to patent US20140294819A1 (NVIP, published 2014):

T1: canine CD20 cyclic (oxidised, disulphide-bonded) peptide SEQ ID NO:2 (canine, disulphide bond between the two cysteine residues (corresponding to positions 167 and 183); N-terminal biotin in the streptavidin-plate assays)
T1 construct: Chemically synthesised and oxidised; also called C20; caCD20 peptide
T1 peptide: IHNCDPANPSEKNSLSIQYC

T2: human CD20 cyclic (oxidised) peptide SEQ ID NO:3 (human, disulphide bond between the two cysteine residues; biotinylated)
T2 construct: also called H20; human CD20 cyclic peptide
T2 peptide: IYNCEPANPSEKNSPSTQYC

T3: murine CD20 cyclic (oxidised) peptide SEQ ID NO:6 (murine, disulphide bond between the two cysteine residues; biotinylated)
T3 construct: also called M20; mouse CD20 peptide
T3 peptide: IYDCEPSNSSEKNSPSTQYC

T4: feline CD20 cyclised peptide SEQ ID NO:4 (feline, cyclised by a disulphide bond between the two cysteine residues)
T4 construct: also called feline CD20 peptide
T4 peptide: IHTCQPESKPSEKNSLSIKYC


Key:
[1] = target: T1, canine CD20 cyclic (oxidised, …); assay: ELISA on cyclised CD20 peptide
[2] = target: T2, human CD20 cyclic (oxidised) peptide …; assay: ELISA on cyclised CD20 peptide
[3] = target: T3, murine CD20 cyclic (oxidised) peptide …; assay: ELISA on cyclised CD20 peptide
[4] = target: T4, feline CD20 cyclised peptide SEQ ID NO:4; assay: ELISA on cyclised CD20 peptide
[5] = target: T1, canine CD20 cyclic (oxidised, …); assay: ELISA, CHO supernatant on canine CD20 cyclic peptide, dose response
Source text: This confirms the data with Bly-1 above (and by extension its humanised variant GA101) that this is a further example of a Type II anti-human CD20 monoclonal antibody that also binds to a common epitope on canine CD20, thus validating the use of the structurally constrained shared epitope on canine CD20 as a novel target for monoclonal antibodies.

| binding result [1] | binding result [2] | binding result [3] | binding result [4] | binding result [5] | Binder |
| --- | --- | --- | --- | --- | --- |
| binds | binds | binds | binds | – | caninised RF2, HCC isotype (antibody, also called caRF2-C) heavy: EVQLVQSGGGLVKPTESLTISCVISGFSLTSYGVHWVRQSPGKGLEWLGVIWSGGSIDYNAAFISRLSISKDNSKSTVFIRMNSLRADDTAIYYCARGPRKFYYFGMDYWGQGTSVTVSSASTTAPSVFPLAPSCGSQSGSTVALACLVSGYIPEPVTVSWNSVSLTSGVHTFPSVLQSSGLYSLSSMVTVPSSRWPSETFTCNVAHPATNTKVDKPVAKECECKCNCNNCPCPGCGLLGGPSVFIFPPKPKDILVTARTPTVTCVVVDLDPENPEVQISWFVDSKQVQTANTQPREEQSNGTYRVVSVLPIGHQDWLSGKQFKCKVNNKALPSPIEEIISKTPGQAHQPNVYVLPPSRDEMSKNTVTLTCLVKDFFPPEIDVEWQSNGQQEPESKYRMTPPQLDEDGSYFLYSKLSVDKSRWQRGDTFICAVMHEALHNHYTQISLSHSPGK light: DIVMTQTPLSLSVSQEEEASISCRSSQNIVHSNGNTYVEWYLQKPGQSPKLLIYKVSNRFSGVPDRFSGSGSGTDFTLKISRVEAEDAGVYYCFQGSHVPLTFGAGTKLELKRNDAQPAVYLFQPSPDQLHTGSASVVCLLNSFYPKDINVKWKVDGVIQDTGIQESVTEQDKDSTYSLSSTLTMSSTEYLSHELYSCEITHKSLPSTLIKSFQRSECQRVD |
| – | – | – | – | binds | recombinant caninised GA101 (full length canine antibody) (antibody, V domains shown, Tested as CHO cell supernatant) VH: EVQLVQSGGEVVKPGGSLKVSCVASGYAFSYSWINWVRQAPGQGMEWVGRIFPGDGDTDYNGKFKGRVTITRDNSKSTAYLELSSLRSEDTAVYYCARNVFDGYWLVYWGQGTLVTVSS VL: DIVMTQTPLSLSVTPEEPASISCRSSKSLLHSNGITYLYWYLQKPGQSPQLLIYQMSNLVSGVPDRFSGSGSGTDFTLKISRVEAEDVGVYYCAQNLELPYTFGAGTKVEIKR |
